Laboratory results taken from article PMC6174002.

T1: RpoN (sigma54) (Leptospira biflexa strain Patoc 1 …, UniProt B0SR56 1-473)
T1 sequence: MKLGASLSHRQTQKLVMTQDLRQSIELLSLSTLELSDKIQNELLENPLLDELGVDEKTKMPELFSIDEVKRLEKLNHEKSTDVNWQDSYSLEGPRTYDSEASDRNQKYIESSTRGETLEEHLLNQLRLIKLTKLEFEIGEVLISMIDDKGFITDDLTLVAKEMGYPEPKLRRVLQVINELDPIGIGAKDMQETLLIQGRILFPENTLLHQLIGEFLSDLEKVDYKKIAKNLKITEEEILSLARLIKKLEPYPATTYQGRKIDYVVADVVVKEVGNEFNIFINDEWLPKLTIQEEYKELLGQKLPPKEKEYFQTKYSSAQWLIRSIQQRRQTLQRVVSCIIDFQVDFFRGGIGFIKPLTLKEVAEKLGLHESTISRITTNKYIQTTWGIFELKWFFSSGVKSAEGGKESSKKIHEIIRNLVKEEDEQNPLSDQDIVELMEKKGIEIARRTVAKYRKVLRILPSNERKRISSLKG

B1: rcfA promoter -24/-12 probe (dsDNA)
DNA 1: TAAGCCCAATATGCTTTTGGCACGATAGTTGCATCTATTCTACTG
DNA 2: TTCAGTAGAATAGATGCAACTATCGTGCCAAAAGCATATTGGGCTT
B2: rcfA promoter cold competitor (dsDNA)
DNA 1: B1 DNA 1
DNA 2: B1 DNA 2

Experiments:
RpoN (sigma54) [1] = biological target: T1, RpoN (sigma54); test: EMSA
RpoN (sigma54) [2] = biological target: T1, RpoN (sigma54); test: competition

Binder | binding result (RpoN (sigma54) [1]) | binding result (RpoN (sigma54) [2])
B1 | binds | 
B2 |  | binds
